A protein production outcome set (Wang et al. 2014)

Experiment: label from the status in PepcDB records

Sequence	protein production
DSLKAEVNTLFARFDEQPLAAASIAQVHTAALFDGREVIVKVTRPNIRTQILQDFEIISWLGQSLESRLEAARALHLSEIIQDYRQIILNELDLTLEADNTRRMRHYFTGSSMMYVPEVY	not failed
DTVANASGPLMVEIVKTPGSALGISLTTTSLRNKSVITIDRIKPASVVDRSGALHPGDHILSIDGTSMEHCSLLEATKLLASISEKVRLEILPVPQSQRPLRPS	not failed
DVKEFCKKSLRVRKRQLKDLLYSLEDDNKELFERVIKLFENFKNRDEIFYEKISEEIVWTVKKNILFVNIEEGILKPQSKLDLLAIREILDEIKT	failed
DVTERRRAREALQESEARMKGIASNVPGMVFRLERPRAGAFSDFAYISEGSEALVGYSARELIESGRGIRGLVHPDDRERYWSSQMAALDENRDWHWQGRILTRQGELRWADIKASARCFEDGRAVWDGVVWD	failed
DVVVVGSGVAGPIVARDVAKAGFSVLLVDKKPAIGTPKQCAEGINVNVFKEFDIPYDKRFINREIYGARIYSPSGYTAELRYDKVSGVILERKVFDKMLAYYAAKAGADVWARTEVIDLLRKEGKIMGVKAKHEGELVEIEAKIIVAADGVESTVARLAGINTYAPPHEFDSAYEYEMIIEGYDPDLIHLWFGNEIAPRGYVWVFPKDEDRANVGIGINSDNEKTAKYYLDKWLKENNIPTKKILEINVGLVPVGGFVRELVKENVAVVGDAARQVNPVHGGGMYEAMKAANILAKWIVKALEEENLELLKNYTKEWWEVEGPKMERLLKLRRAMEKLTDEDIDVFVQLLGGTDLEKLAGGNYFEVVKALMKHPKVLMSKRRLEILKALL	failed
EDYSCFIFRHFPQVQIHPHAQRAAQAAEAAAAQGQFWLMNDTLFDHQQRLENGYLVEYANDLGLDIPQFLKELAKQVHVDRIKKDIEGGLQSGVMAVPALFVNGILYRDCWNIKQLIATIIASSY	failed
EEKVVAEQQADGTWLMDGWISIRKASNLLEHDLVDEAERYSTLGGYLLWQFGYIPAAGEQITVDGLIFEIVSVNKHNIGKVRVHRTQ	not failed
EEKYVTVQPYTSQSKDEIGFEKGVTVEVIRKNLEGWWYIRYLGKEGWAPASYLKKAKD	not failed
EFTTMLGPAVLGLSLWALLHPGTGAPLCLSQQLRMKGDYVLGGLFPLGEAEEAGLRSRTRPSSPVCTRFSSNGLLWALAMKMAVEEINNKSDLLPGLRLGYDLFDTCSEPVVAMKPSLMFLAKAGSRDIAAYCNYTQYQPRVLAVIGPHSSELAMVTGKFFSFFLMPQVSYGASMELLSARETFPSFFRTVPSDRVQLTAAAELLQEFGWNWVAALGSDDEYGRQGLSIFSALAAARGICIAHEGLVPLPRADDSRLGKVQDVLHQVNQSSVQVVLLFASVHAAHALFNYSISSRLSPKVWVASEAWLTSDLVMGLPGMAQMGTVLGFLQRGAQLHEFPQYVKTHLALATDPAFCSALGEREQGLEEDVVGQRCPQCDCITLQNVSAGLNHHQTFSVYAAVYSVAQALHNTLQCNASGCPAQDPVKPWQLLENMYNLTFHVGGLPLRFDSSGNVDMEYDLKLWVWQGSVPRLHDVGRFNGSLRTERLKIRWHTSDNQKPVSRCSRQCQEGQVRRVKGFHSCCYDCVDCEAGSYRQNPDDIACTFCGQDEWSPERSTRCFRRRSRFLAWGEPAVLLLLLLLSLALGLVLAALGLFVHHRDSPLVQASGGPLACFGLVCLGLVCLSVLLFPGQPSPARCLAQQPLSHLPLTGCLSTLFLQAAEIFVESELPLSWADRLSGCLRGPWAWLVVLLAMLVEVALCTWYLVAFPPEVVTDWHMLPTEALVHCRTRSWVSFGLAHATNATLAFLCFLGTFLVRSQPGRYNRARGLTFAMLAYFITWVSFVPLLANVQVVLRPAVQMGALLLCVLGILAAFHLPRCYLLMRQPGLNTPEFFLGGGPGDAQGQNDGNTGNQGKHE	failed
EIESRELADIPVLHAYPVGQKDTPLPCVIFYHGFTSSSLVYSYFAVALAQAGLRVIMPDAPDHGSRFSGDAARRLNQFWQILLQSMQEFTTLRAAIAEENWLRDDRLAVGGASMGAMTALGITARHPTIKCTASMMGSGYFTSLARSLFPPLIPETAAQQNEFNNIVAPLAEWEATNHLEQLGDRPLLLWHGLDDDVVPADESLRLQQALSETGRDKLLTCSWQPGVRHRITPEALDAAVTFFLQHL	failed
EKAVLIGEKEADITFVTWGSQKGPILDVIEDLKEEGISANLLYLKMFSPFPTEFVKNVLSSANLVIDVESNYTAQAAQMIKLYTGIDIKNKILKYNGRHMTEDEILKSAKEILNKESLMVVLEDGS	failed
EKEDSKTRGEKIKSDFFELLSNHHLDSQSRWSKVKDKVESDPRYKAVDSSSMREDLFKQYIEKIAKNLDS	not failed
EKGDWAQFGRYAEANKTVKVPSNVVFMGNSITDGWWPADSTFFIRNNFVDRGISGQTTSEMLVRFRQDVINLKPKAVVILAGINDIAHNNGVIALENVFGNLVSMAELAKANHIKVIFCSVLPAYDFPWRPGMQPADKVIQLNKWIKEYADKNGLTYVDYHSAMKDERNGLPANLSKDGVHPTLEGYKIMEKIVLEAIHKTVK	not failed
EKGLEIAQERKARDEGWGDSIATMEMILKNAQGESSTRLMRLKSLEVEGDGDKGLTIFDQPRDVTGTAFLNHSHTIGADDQWLYLPALKRVKRISSRNKSGPFMGSEFAYEDLSSFEIEKYRFNHLKDEKFNGQDVFVLEQIPTDKNSGYTKQVVWLDKAHYRPLKVEFYDRKGALLKTLTFANYKQYLDKYWRAHTMAMTNHQTGKSTELNTSDLRFQTGLEENDFNKNVLKR	not failed
ELALWSPEVKIVELVKDCKGLGFSILDYQDPLDPTRSVIVIRSLVADGVAERSGGLLPGDRLVSVNEYCLDNTSLAEAVEILKAVPPGLVHLGIC	not failed
EMEEREIINNVFEFGDMQAKNAMVQRIDMVAIDMEDSYDEIIQVFKTEKLSRMPVYEETIDDIVGILNIKDIIFLSDEEIESFDIKNYMREPFFTYEFKKITQLLEEMKLEKSQMAIVVDEYGGTSGLLTIEDLVEVIVGDIE	not failed
EQAEAQLAELDLLASMFPGENELIVNDQLAVAELKDCIEKKTMEGRSSKVYFTINMNLDVSDEKMAMFSLACILPFKYPAVLPEITVRSVLLSRSQQTQLNTDLTAFLQKHCHGDVCILNATEWVREHASGYVSRDTSS	not failed
EQLPVLQTVPFAGSAEPVSLTRESVERSVGEANMQEQRKRVHAMLRDYELQLRINSDASQQDAHLTPDSE	not failed
EQLTLRHGTRADISEIAPLLARNAADPCELVDLEHALDLLTHESSHFLAVVRNARGKIIAAMQLTIVPEFSRGGALHLHIEGPFIIPEYRTTDLDKKLRAWAVEHGRARGVKVEEVVG	failed
EQVFAAECILSKRLRKGKLEYLVKWRGWSSKHNSWEPEENILDPRLLLAFQKKEHEKEVQN	not failed
ESELACVIALQDITLRVQETERLEKMLEHLPVCMVIMNQNDEVEQINQTGIELLGFERDEIVGNPVDLFIPQEQVESHKALLKKFFQEETVIDTRSLERDFKVKHKSGKLIEIQAVYTPVHFHN	failed
EVQKPLHEQLWYHGAIPRAEVAELLVHSGDFLVRESQGKQEYVLSVLWDGLPRHFIIQSLDNLYRLEGEGFPSIPLLIDHLLSTQQPLTKKSGVVLHRAVP	not failed
EVVVTALGIKREKKMLGYAVQELKSDELNKTGDPSVTSALQGKVAGLQMNTSATGLGGSTKITIRGNSSLTDNNQPLWIVDGVPFSDTSTSSASRYDGVDRGSASMDINPDDIESISVLKGPNAAALYGSRAGNGVILITTKKGSK	failed
FATTDDVILLWRQLSVDEIKRAEALLETVSDTLRLEASKVGKNLDEMILETPYFATVLKSVTVDIVARTLMTATQGEPMSQESQSALGYTWSGTYLVPGGGLFIKDSELKRLGLKKQRYGGI	failed
FEELLNALHDGVYITDGQGQTLKVNQAYERLTGLNGAELLGRPMQELVKSGVISQSASLRVLQDGRPVSVMQSLSHGKKLLVSATPILAADQSIRYVVSTVRDMTELLRIKRERDELQQL	failed
